The values that follow come from article PMC10232555, “Molecular structure of soluble vimentin tetramers” (Scientific Reports, 2023).

Where “and” joins values, the source holds several entries; their conditions need not be identical. Equal values may be shown once.

Broadly, the stoichiometry N is the number of molecules, sites or subunits per partner or assembly.

First the molecules themselves.
B1: vimentin coil1B construct (residues 150-249) (domain or fragment)
chain: not shown
notes: vimentin, human, coil1B, residues 150-249; theoretical monomer mass printed as 12.1 kDa; also called coil1B fragment; source: denatured in 8 M urea and re-natured by step-wise dialysis before analysis
B2: vimentin ΔNrod (coil1B and coil2, residues 150-404) (domain or fragment)
chain: not shown
notes: vimentin, human, coil1B and coil2 domains, residues 150-404; theoretical monomer mass printed as 30.2 kDa; source: denatured in 8 M urea and re-natured by step-wise dialysis before analysis
B3: vimentin rod domain (residues 93-404) (domain or fragment)
chain: not shown
notes: vimentin, human, rod domain, residues 93-404; theoretical monomer mass printed as 36.9 kDa; also called rod fragment; rod construct; source: denatured in 8 M urea and re-natured by step-wise dialysis before analysis

The first series concerns the molecule itself. The series is described as follows: cross-linking; truncated fragments 0.4 mg/mL in HS conditions (10 mM HEPES, 150 mM NaCl, pH 7.5); DSG and DSBU; reducing SDS-PAGE.
Consider B1, for which the “stoichiometry N” value was determined as 2.

Take B2: the “stoichiometry N” value worked out at 2.

Turning to B3, the “stoichiometry N” value amounted to 4.

A further series deals with the molecule itself. The series is described as follows: SEC-MALS; Superdex 200 Increase 10/300 GL, HS buffer (10 mM HEPES, 150 mM NaCl, pH 7.5) after salt jump and 1 h at 37 °C; injected 0.79 mg/mL rod, 0.55 mg/mL ΔNrod, 1.52 mg/mL coil1B.
On to B1, for which the “stoichiometry N” value was found to be 2.

With B2, the “stoichiometry N” value is 2 and 4.

In the case of B3, the “stoichiometry N” value was found to be 4.
